Target: T1, phosphorylated, GFP-tagged HK MtrB (cytosolic catalytic domain) (M. tuberculosis, UniProt P9WGK9 234-567)
T1 construct: also called MtrB~P; P~MtrB-GFP
T1 sequence: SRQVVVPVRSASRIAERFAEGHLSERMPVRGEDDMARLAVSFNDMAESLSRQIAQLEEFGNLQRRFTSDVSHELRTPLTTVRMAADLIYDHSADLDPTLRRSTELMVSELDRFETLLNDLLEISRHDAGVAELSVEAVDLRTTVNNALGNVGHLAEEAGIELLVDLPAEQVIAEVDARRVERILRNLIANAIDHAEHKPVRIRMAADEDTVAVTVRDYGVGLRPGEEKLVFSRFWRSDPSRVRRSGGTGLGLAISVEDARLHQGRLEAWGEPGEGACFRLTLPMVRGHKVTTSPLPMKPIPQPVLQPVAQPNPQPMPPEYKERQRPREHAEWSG
Assay: MST
Conditions: both partners purified

B1: MtrA^D56N, phosphor-defective mutant of MtrA (natural protein)
chain: MDTMRQRILVVDDDASLAEMLTIVLRGEGFDTAVIGDGTQALTAVRELRPDLVLLNLMLPGMNGIDVCRVLRADSGVPIVMLTAKTDTVDVVLGLESGADDYIMKPFKPKELVARVRARLRRNDDEPAEMLSIADVEIDVPAHKVTRNGEQISLTPLEFDLLVALARKPRQVFTRDVLLEQVWGYRHPADTRLVNVHVQRLRAKVEKDPENPTVVLTVRGVGYKAGPP
Q: B1 was tested. Which Kd did it give?
A: The Kd was 371 ± 130 nM.

B2: NarL^D61N, phosphor-defective mutant of NarL (natural protein)
chain: MSNPQPEKVRVVVGDDHPLFREGVVRALSLSGSVNVVGEADDGAAALELIKAHLPDVALLNYRMPGMDGAQVAAAVRSYELPTRVLLISAHDEPAIVYQALQQGAAGFLLKDSTRTEIVKAVLDCAKGRDVVAPSLVGGLAGEIRQRAAPVAPVLSAREREVLNRIACGQSIPAIAAELYVAPSTVKTHVQRLYEKLGVSDRAAAVAEAMRQRLLD
Q: How did the Kd turn out when B2 was run?
A: The Kd was 78 ± 13 nM.

From article PMC10368727, “Sequestration of histidine kinases by non-cognate response regulators establishes a threshold level of stimulation for bacterial two-component signaling” (Nature Communications, 2023)
